Results published in publication PMC8172134.

Target: SARS-CoV spike prefusion stabilized ectodomain trimer (SARS-CoV) (UniProt P59594)
Experiment: cryo-EM structure

With 47D11 Fab fragment as the substance, how does the stoichiometry N (Fab per spike trimer) read?
Its stoichiometry N (Fab per spike trimer) is 3.
